The values below come from article PMC8522838 (2021).

B1: SmBiT-MYC 1-190 [human] / TRRAP 2033-2283-LgBiT [not stated] (parent complex)
chain 1: MPLNVSFTNRNYDLDYDSVQPYFYCDEEENFYQQQQQSELQPPAPSEDIWKKFELLPTPPLSPSRRSGLCSPSYVAVTPFSLRGDNDGGGGSFSTADQLEMVTELLGGDMVNQSFICDPDDETFIKNIIIQDCMWSGFSAAAKLVSEKLASYQAARKDSGSPNPARGHSVCSTSSLYLQDLSAAASECID
chain 2: NSSGEGVNSVSSSIKRGLSVDSAQEVKRFRTATGAISAVFGRSQSLPGADSLLAKPIDKQHTDTVVNFLIRVACQVNDNTNTAGSPGEVLSRRCVNLLKTALRPDMWPKSELKLQWFDKLLMTVEQPNQVNYGNICTGLEVLSFLLTVLQSPAILSSFKPLQRGIAACMTCGNTKVLRAVHSLLSRLMSIFPTEPSTSSVASKYEELECLYAAVGKVIYEGLTNYEKATNANPSQLFGTLMILKSACSNNP

This assay covers variants of B1. Briefly: luminescence complementation (NanoBiT) in transfected cells; normalized for MYC expression level; parent: 100; read off a plot.
chain 1 S136A: the percent of parent is ~77 % RLU to WT.
In the case of chain 1 F138A it was ~24 % RLU to WT; in that of chain 1 W135A, ~35 % RLU to WT; in that of chain 1 M134A, ~43 % RLU to WT.
The result for chain 1 T58I reads ~102 % RLU to WT.
